The results in this text go back to paper PMC12797002, “Hydrophobic residues in the α‐synuclein NAC domain drive seed‐competent fibril formation and are targeted by peptide inhibitors” (The Febs Journal, 2025).

Data set [1] concerns the molecule itself. Put plainly: co-sedimentation; 100 μM NAC peptide incubated 48 h without ThT, centrifuged at 65 000 g for 1 h; UV–Vis spectra (400–600 nm) of soluble and insoluble fractions.
Data set [2] deals with the molecule itself. Put plainly: ANS fluorescence aggregation kinetics; 100 μM NAC peptide, 40 μM ANS, 1× PBS at acidic (pH 4.2 in the methods, 4.5 in the legend), neutral (7.2) or basic (8.0) pH, 37 °C, 1000 rpm.

B1: NAC16 (peptide, UniProt P37840 63-78, looked up)
peptide: VTNVGGAVVTGVTAVA
notes: alpha-synuclein, residues 63-78 (NAC residues 3-18); also called αSyn 63–78; source: synthetic peptide (GenScript Biotech, purity ≥ 95%)
With B1, the binding result in data set [1] is reported as “binds”.

B2: NAC11 (peptide, UniProt P37840 68-78, looked up)
peptide: GAVVTGVTAVA
notes: alpha-synuclein, residues 68-78 (NAC residues 8-18); also called NACore; αSyn 68–78; source: synthetic peptide (GenScript Biotech, purity ≥ 95%)
B2: the binding result in data set [2] is “binds”.
